Columns and labels:
[1] = molecular target: T1, 33-mer gliadin peptide LQLQPFPQPQLPYPQPQLPYPQPQLPYPQPQPF
T1 chain: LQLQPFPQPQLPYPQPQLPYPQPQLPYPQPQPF

[2] = molecular target: T2, gliadin peptide PQPQLPYPQPQLP
T2 chain: PQPQLPYPQPQLP

B1: human tissue transglutaminase (protein)
chain: AEELVLERCDLELETNGRDHHTADLCREKLVVRRGQPFWLTLHFEGRNYEASVDSLTFSVVTGPAPSQEAGTKARFPLRDAVEEGDWTATVVDQQDCTLSLQLTTPANAPIGLYRLSLEASTGYQGSSFVLGHFILLFNAWCPADAVYLDSEEERQEYVLTQQGFIYQGSAKFIKNIPWNFGQFEDGILDICLILLDVNPKFLKNAGRDCSRRSSPVYVGRVVSGMVNCNDDQGVLLGRWDNNYGDGVSPMSWIGSVDILRRWKNHGCQRVKYGQCWVFAAVACTVLRCLGIPTRVVTNYNSAHDQNSNLLIEYFRNEFGEIQGDKSEMIWNFHCWVESWMTRPDLQPGYEGWQALDPTPQEKSEGTYCCGPVPVRAIKEGDLSTKYDAPFVFAEVNADVVDWIQQDDGSVHKSINRSLIVGLKISTKSVGRDEREDITHTYKYPEGSSEEREAFTRANHLNKLAEKEETGMAMRIRVGQSMNMGSDFDVFAHITNNTAEEYVCRLLLCARTVSYNGILGPECGTKYLLNLNLEPFSEKSVPLCILYEKYRDCLTESNLIKVRALLVEPVINSYLLAERDLYLENPEIKIRILGEPKQKRKLVAEVSLQNPLPVALEGCTFTVEGAGLTEEQKTVEIPDPVEAGEEVKVRMDLLPLHMGLHKLVVNFESDKLKAVKGFRNVIIGPA
kcat/KM of deamidation [1]: kcat/KM=440 min-1 mM-1

B2: Flavobacterium meningosepticum prolyl endopeptidase (recombinant, expressed in E. coli) (protein)
chain: QNSNVLKYPETKKVSHTDTYFGTQVSDPYRWLEDDRAEDTKAWVQQEVKFTQDYLAQIPFRDQLKKQLMDIWNYEKISAPFKKGKYTYFSKNDGLQAQSVLYRKDAAGKTEVFLDPNKFSEKGTTSLASVSFNKKGTLVAYSISEGGSDWNKIIILDAETKKQLDETLLDVKFSGISWLGDEGFFYSSYDKPKEGSVLSGMTDKHKVYFHKLGTKQSQDELIIGGDKFPRRYIGAYVTDDQRYLVVSAANATNGNELYIKDLKNKTDFIPIITGFDSNVNVADTDGDTLYLFTDKDAPNKRLVKTTIQNPKAETWKDVIAETSEPLEINTGGGYFFATYMKDAIDQVKQYDKNGKLVRAIKLPGSGNASGFGGEKTEKDLYYSFTNYITPPTIFKYNVTTGNSEVYQKPKVKFNPENYVSEQVFYTSSDGTKIPMMISYKKGLKKDGKNPTILYSYGGFNISLQPAFSVVNAIWMENGGIYAVPNIRGGGEYGKKWHDAGTKMQKKNVFNDFIAAGEYLQKNGYTSKEYMALSGRSNGGLLVGATMTMRPDLAKVAFPGVGVLDMLRYNKFTAGAGWAYDYGTAEDSKEMFEYLKSYSPVHNVKAGTCYPSTMVITSDHDDRVVPAHSFKFGSELQAKQSCKNPILIRIETNAGHGAGRSTEQVVAENADLLSFALYEMGIKSLK
competitive proteolysis of the 13-mer and the 33-mer [1]: showed comparable selectivity for both peptides
initial rate on the 33-mer, fold against MX PEP [1]: 5-fold faster on the 33-mer than the MX PEP
initial rate on the 33-mer, fold against SC PEP [1]: >20 fold faster than the SC PEP
rate of substrate (33-mer+32-mer) disappearance [1]: 2.3 µM/min (FM PEP)
time to hydrolyze 10 µM of the 33-mer with 0.1 µM enzyme [1]: in about 2-3 minutes
Kcat/KM [2]: 178 mM^-1/s^-1
competitive proteolysis of the 13-mer and the 33-mer [2]: showed comparable selectivity for both peptides
